# Assay results taken from PMC4721543.
# pKd: −log10 of the molar value.
# What was measured:
# human VEGF-A165 (human) [1] = assay: MST; 10 nM NT-647-labelled HGF or VEGF165 with serial dilutions of the unlabelled partner; 22°C, PBS plus 1% BSA; Monolith NT.115
# human VEGF-A165 (human) [2] = assay: fluorescence correlation spectroscopy; as the FCS series, but VEGF165 labelled with NT 647 (Table 1)
# human VEGF-A165 (human) [3] = assay: fluorescence correlation spectroscopy; 1-5 nM ATTO 647N-labelled growth factor with 0.1 nM to 20 μM unlabelled CD44 ectodomain; at least 3 h at room temperature; PBS with 0.05% Tween-20; 20°C; diffusion times fitted with a 1:1 binding model
substance,measurement,setting,value
"rat CD44v6 ectodomain, hexahistidine-tagged (from UniProt P26051 22-410) (domain or fragment)",pKd,human VEGF-A165 (human) [1],7.29
same,pKd,human VEGF-A165 (human) [2],6.70
same,pKd,human VEGF-A165 (human) [3],7.19
